The nature of the data set: MR T1 relaxivity of contrast agents. The settings on record: globular versus elongated conformation. Format: physicochemical. The protocol:
A low relaxivity or long relaxation time is associated with an elongated molecule such as a highly substituted Gd-DTPA-PLL, in which the Gd can rotate rapidly, having a relaxivity of about 8 sec^−1 mM^−1. When the relaxivity of a peptide contrast agent was high, the uptake coefficient of such an agent was invariably low, evidently due to the absence of a reptation movement of the contrast agent molecule, resulting in the exclusion of the contrast agent from narrow passages. Thus, it is important to establish that the peptides being compared for optimum length are all of the same conformation. Relaxivity values of the Gd-PLL for various lengths were tested to be between 7.5 and 10 for average chain length of 92, 219, 455, 633, and 1163 residues, in a 2 Tesla magnet (2 T) at 80 MHz and 23° C.

Regarding albumin, the relaxivity result is on record as “about 15 sec^−1 mM^−1”.
